The target of experiment [1] is T1, IgG-IL-2 (monovalent fusion of wild-type human IL-2 to a non-targeted, effector-silent human IgG1) (human, UniProt P60568 21-153). Put plainly: SPR.
Experiment [2] deals with T2, IgG-(IL-2)2 (bivalent fusion of two wild-type human IL-2 to a non-targeted, effector-silent human IgG1) (human, UniProt P60568 21-153). Put plainly: SPR.
Experiment [3] addresses T1, IgG-IL-2 (monovalent fusion of …). Kind of experiment: SPR; steady state.
The target in experiment [4] is T2, IgG-(IL-2)2 (bivalent fusion of two …). Kind of experiment: SPR; steady state.

B1: human IL-2Rβγ heterodimeric Fc fusion (knobs-into-holes), biotinylated (Fc fusion)
chain 1: AVNGTSQFTCFYNSRANISCVWSQDGALQDTSCQVHAWPDRRRWNQTCELLPVSQASWACNLILGAPDSQKLTTVDIVTLRVLCREGVRWRVMAIQDFKPFENLRLMAPISLQVVHVETHRCNISWEISQASHYFERHLEFEARTLSPGHTWEEAPLLTLKQKQEWICLETLTPDTQYEFQVRVKPLQGEFTTWSPWSQPLAFRTKPAALGKDT
chain 2: LNTTILTPNGNEDTTADFFLTTMPTDSLSVSTLPLPEVQCFVFNVEYMNCTWNSSSEPQPTNLTLHYWYKNSDNDKVQKCSHYLFSEEITSGCQLQKKEIHLYQTFVVQLQDPREPRRQATQMLKLQNLVIPWAPENLTLHKLSESQLELNWNNRFLNHCLEHLVQYRTDWDHSWTEQSVDYRHKFSLPSVDGQKRYTFRVRSRFNPLCGSAQHWSEWSHPIHWGSNTSKENPFLFALEA
Turning to B1, the dissociation rate constant (koff) is 3.8e-05 s⁻¹ in experiment [1] and 8.1e-06 s⁻¹ in experiment [2].

B2: cynomolgus IL-2Rβγ heterodimeric Fc fusion (knobs-into-holes), biotinylated (Fc fusion)
chain 1: AVNGTSRFTCFYNSRANISCVWSQDGALQDTSCQVHAWPDRRRWNQTCELLPVSQASWACNLILGTPDSQKLTAVDIVTLRVMCREGVRWRMMAIQDFKPFENLRLMAPISLQVVHVETHRCNISWKISQASHYFERHLEFEARTLSPGHTWEEAPLMTLKQKQEWICLETLTPDTQYEFQVRVKPLQGEFTTWSPWSQPLAFRTKPAALGKDT
chain 2: LNTTILTPNGNEDATTDFFLTSMPTDSLSVSTLPLPEVQCFVFNVEYMNCTWNSSSEPQPTNLTLHYWYKNSDNDKVQKCSHYLFSEEITSGCQLQKKEIHLYQTFVVQLQDPREPRRQATQMLKLQNLVIPWAPENLTLRKLSESQLELNWNNRFLNHCLEHLVQYRTDWDHSWTEQSVDYRHKFSLPSVDGQKRYTFRVRSRFNPLCGSAQHWSEWSHPIHWGSNSSKENPFLFALEA
As for B2, the koff stood at 0.00011 s⁻¹ in experiment [1] and 5.3e-05 s⁻¹ in experiment [2].

B3: murine IL-2Rα, monomeric, his-tagged (receptor)
chain: ELCLYDPPEVPNATFKALSYKNGTILNCECKRGFRRLKELVYMRCLGNSWSSNCQCTSNSHDKSRKQVTAQLEHQKEQQTTTDMQKPTQSMHQENLTGHCREPPPWKHEDSKRIYHFVEGQSVHYECIPGYKALQRGPAISICKMKCGKTGWTQPQLTCVDEREHHRFLASEESQGSRNSSPESETSCPITTTDFPQPTETTAMTETFVLTMEYKVAVASCLFLLISILLLSGLTWQHRWRKSRRTI
As for B3, the Kd in experiment [3] turned out to be 110 nM; in experiment [4], 30 nM.

B4: human IL-2Rα, monomeric, his-tagged (receptor)
chain: ELCDDDPPEIPHATFKAMAYKEGTMLNCECKRGFRRIKSGSLYMLCTGNSSHSSWDNQCQCTSSATRNTTKQVTPQPEEQKERKTTEMQSPMQPVDQASLPGHCREPPPWENEATERIYHFVVGQMVYYQCVQGYRALHRGPAESVCKMTHGKTRWTQPQLICTGEMETSQFPGEEKPQASPEGRPESETSCLVTTTDFQIQTEMAATMETSIFTTEYQVAVAGCVFLLISVLLLSGLTWQRRQRKSRRTI
Regarding B4, the Kd in experiment [3] was 15 nM; in experiment [4] it was 5 nM.

B5: cynomolgus IL-2Rα, monomeric, his-tagged (receptor)
chain: ELCDDDPPKITHATFKAVAYKEGTMLNCECKRGFRRIKSGSPYMLCTGNSSHSSWDNQCQCTSSAARNTTKQVTPQPEEQKERKTTEMQSQMQLADQVSLPGHCREPPPWENEATERIYHFVVGQTVYYQCVQGYRALHRGPAESVCKMTHGKTRWTQPQLICTGETEPSQFPGEEEPQASPDGLPESETSRLVTTTDFRIQTEVAATMETFIFTTEYQ
Regarding B5, the Kd was found to be 30 nM in experiment [3] and 15 nM in experiment [4].

B6: murine IL-2Rβγ heterodimeric Fc fusion (knobs-into-holes), biotinylated (Fc fusion)
chain 1: AVKNCSHLECFYNSRANVSCMWSHEEALNVTTCHVHAKSNLRHWNKTCELTLVRQASWACNLILGSFPESQSLTSVDLLDINVVCWEEKGWRRVKTCDFHPFDNLRLVAPHSLQVLHIDTQRCNISWKVSQVSHYIEPYLEFEARRRLLGHSWEDASVLSLKQRQQWLFLEMLIPSTSYEVQVRVKAQRNNTGTWSPWSQPLTFRTRPADPMKE
chain 2: WSSKVLMSSANEDIKADLILTSTAPEHLSAPTLPLPEVQCFVFNIEYMNCTWNSSSEPQATNLTLHYRYKVSDNNTFQECSHYLFSKEITSGCQIQKEDIQLYQTFVVQLQDPQKPQRRAVQKLNLQNLVIPRAPENLTLSNLSESQLELRWKSRHIKERCLQYLVQYRSNRDRSWTELIVNHEPRFSLPSVDELKRYTFRVRSRYNPICGSSQQWSKWSQPVHWGSHTVEENPSLFALEA
In the case of B6, the koff in experiment [1] came out at 0.00065 s⁻¹; in experiment [2], 9.3e-05 s⁻¹.
